The values that follow come from patent US20020012942A1, “POLYPEPTIDES WITH A4 INTEGRIN SUBUNIT RELATED ACTIVITY” (Regents of the University of Minnesota, priority 1998, published 2002).

Like-named read-outs stand apart in the source and are kept apart here. Where no end group is shown, it is not given here.

Series [1] deals with A375SM human melanoma cells. Description: Trypan blue exclusion assay. The class given is cell-based.
In series [2] the test system is A375SM human melanoma cells. The experiment in a line: Cell adhesion assay: A375SM melanoma cell adhesion to substrata coated with CS1/OVA. The note with it: A375SM cells on coated substrata. The series is classed as cell-based. The method, then:
Cell adhesion assays were performed as previously described in Iida et al., J. Cell Biol., 118, 431-444 (1992) with minor modifications. Ligands were diluted in PBS, and 50 μl aliquots were dispersed in triplicate into Immulon-1 polystyrene microtiter wells. The wells were incubated at 37° C. overnight, and nonspecific binding sites on plastic were then blocked by treating the wells with 200 ul of PBS/BSA.
Subconfluent A375SM human melanoma cells which had been radiolabeled overnight with ^3H-thymidine (3HTdR, specific activity 6.7 Ci/mmol; NEN Research Products, Boston, Mass.), were harvested by rinsing with 1 mM EDTA, washed two times with EMEM/BSA (EMEM containing 2 mg/ml BSA and 0.15 mM Hepes, pH 7.2) and adjusted to a concentration of […] in the same medium. Aliquots of 100 ul of the cell suspension were dispensed into the wells and the cells were incubated at 37° C. for 30 min. The assays were terminated by aspirating loosely bound and unbound cells from the wells, washing the wells three times, and solubilizing the bound cells in 0.5 N NaOH containing 1% SDS. Bound radioactivity, determined in a Beckman Model 3801 Liquid Scintillation Counter, was used to calculate the percentage of cells which remained adherent to each substratum. Unless otherwise indicated, the data represent the mean of triplicate determinations. […]

The target in series [3] is MPG/NG2 chondroitin sulfate proteoglycan (human) (UniProt Q6UVK1). The experiment in a line: SG1 peptide affinity column with purified MPG/NG2, linear NaCl gradient 15 mM to 1 M.
The target of another series is CD44 proteoglycan (human, UniProt P16070-12 21-361, limits assumed). Description: SG1 peptide affinity column with 125I-labeled melanoma cell lysate; pooled eluate immunoprecipitated with anti-CD44. The method, then:
Peptide-affinity chromatography was performed according to the methods described in Iida et al., J. Cell Biol., 118, 431-444 (1992). SG1 was immobilized on CH-Spharose and blocked using standard methods as described in the manufacturer's instruction. (available from Pharmacia). Human melanoma cells were surface radiolabeled with ¹²⁵I using lactoperoxidase and extracted as described in Iida et al., Cancer Res., 55, 2177-2185 (1995). Cells were extracted with 50 mM Tris-HCl (pH 7.3) containing 50 mM β-octylglucoside, 15 mM NaCl, 1 mM Ca²+, 1 mM Mg²+, 1 mM Mn²+, 1 mM PMSF, and 1 mM NEM (extraction buffer) and then centrifuged at 36500 rpm for 1 h at 4° C. The cell lysates were first precleared by incubating with a mock-column, where no peptide was immobilized, and then applied on the SG1 column. The column was extensively washed with the extraction buffer and then bound proteins were subsequently eluted by a linear gradient of sodium chloride (15 mM to 1 M). Each fraction was counted by r-counter and positive fractions were pooled and immunoprecipitated as described below.
In order to study the function of SG1 site in α4β1 integrin, affinity chromatography was performed using immobilized SG1 polypeptide. […] Open circles represent the radioactivity in each fraction and the solid line represents the concentration of NaCl in each fraction. […]

Sequence of MPG/NG2 chondroitin sulfate proteoglycan (human) (Q6UVK1 30-2322): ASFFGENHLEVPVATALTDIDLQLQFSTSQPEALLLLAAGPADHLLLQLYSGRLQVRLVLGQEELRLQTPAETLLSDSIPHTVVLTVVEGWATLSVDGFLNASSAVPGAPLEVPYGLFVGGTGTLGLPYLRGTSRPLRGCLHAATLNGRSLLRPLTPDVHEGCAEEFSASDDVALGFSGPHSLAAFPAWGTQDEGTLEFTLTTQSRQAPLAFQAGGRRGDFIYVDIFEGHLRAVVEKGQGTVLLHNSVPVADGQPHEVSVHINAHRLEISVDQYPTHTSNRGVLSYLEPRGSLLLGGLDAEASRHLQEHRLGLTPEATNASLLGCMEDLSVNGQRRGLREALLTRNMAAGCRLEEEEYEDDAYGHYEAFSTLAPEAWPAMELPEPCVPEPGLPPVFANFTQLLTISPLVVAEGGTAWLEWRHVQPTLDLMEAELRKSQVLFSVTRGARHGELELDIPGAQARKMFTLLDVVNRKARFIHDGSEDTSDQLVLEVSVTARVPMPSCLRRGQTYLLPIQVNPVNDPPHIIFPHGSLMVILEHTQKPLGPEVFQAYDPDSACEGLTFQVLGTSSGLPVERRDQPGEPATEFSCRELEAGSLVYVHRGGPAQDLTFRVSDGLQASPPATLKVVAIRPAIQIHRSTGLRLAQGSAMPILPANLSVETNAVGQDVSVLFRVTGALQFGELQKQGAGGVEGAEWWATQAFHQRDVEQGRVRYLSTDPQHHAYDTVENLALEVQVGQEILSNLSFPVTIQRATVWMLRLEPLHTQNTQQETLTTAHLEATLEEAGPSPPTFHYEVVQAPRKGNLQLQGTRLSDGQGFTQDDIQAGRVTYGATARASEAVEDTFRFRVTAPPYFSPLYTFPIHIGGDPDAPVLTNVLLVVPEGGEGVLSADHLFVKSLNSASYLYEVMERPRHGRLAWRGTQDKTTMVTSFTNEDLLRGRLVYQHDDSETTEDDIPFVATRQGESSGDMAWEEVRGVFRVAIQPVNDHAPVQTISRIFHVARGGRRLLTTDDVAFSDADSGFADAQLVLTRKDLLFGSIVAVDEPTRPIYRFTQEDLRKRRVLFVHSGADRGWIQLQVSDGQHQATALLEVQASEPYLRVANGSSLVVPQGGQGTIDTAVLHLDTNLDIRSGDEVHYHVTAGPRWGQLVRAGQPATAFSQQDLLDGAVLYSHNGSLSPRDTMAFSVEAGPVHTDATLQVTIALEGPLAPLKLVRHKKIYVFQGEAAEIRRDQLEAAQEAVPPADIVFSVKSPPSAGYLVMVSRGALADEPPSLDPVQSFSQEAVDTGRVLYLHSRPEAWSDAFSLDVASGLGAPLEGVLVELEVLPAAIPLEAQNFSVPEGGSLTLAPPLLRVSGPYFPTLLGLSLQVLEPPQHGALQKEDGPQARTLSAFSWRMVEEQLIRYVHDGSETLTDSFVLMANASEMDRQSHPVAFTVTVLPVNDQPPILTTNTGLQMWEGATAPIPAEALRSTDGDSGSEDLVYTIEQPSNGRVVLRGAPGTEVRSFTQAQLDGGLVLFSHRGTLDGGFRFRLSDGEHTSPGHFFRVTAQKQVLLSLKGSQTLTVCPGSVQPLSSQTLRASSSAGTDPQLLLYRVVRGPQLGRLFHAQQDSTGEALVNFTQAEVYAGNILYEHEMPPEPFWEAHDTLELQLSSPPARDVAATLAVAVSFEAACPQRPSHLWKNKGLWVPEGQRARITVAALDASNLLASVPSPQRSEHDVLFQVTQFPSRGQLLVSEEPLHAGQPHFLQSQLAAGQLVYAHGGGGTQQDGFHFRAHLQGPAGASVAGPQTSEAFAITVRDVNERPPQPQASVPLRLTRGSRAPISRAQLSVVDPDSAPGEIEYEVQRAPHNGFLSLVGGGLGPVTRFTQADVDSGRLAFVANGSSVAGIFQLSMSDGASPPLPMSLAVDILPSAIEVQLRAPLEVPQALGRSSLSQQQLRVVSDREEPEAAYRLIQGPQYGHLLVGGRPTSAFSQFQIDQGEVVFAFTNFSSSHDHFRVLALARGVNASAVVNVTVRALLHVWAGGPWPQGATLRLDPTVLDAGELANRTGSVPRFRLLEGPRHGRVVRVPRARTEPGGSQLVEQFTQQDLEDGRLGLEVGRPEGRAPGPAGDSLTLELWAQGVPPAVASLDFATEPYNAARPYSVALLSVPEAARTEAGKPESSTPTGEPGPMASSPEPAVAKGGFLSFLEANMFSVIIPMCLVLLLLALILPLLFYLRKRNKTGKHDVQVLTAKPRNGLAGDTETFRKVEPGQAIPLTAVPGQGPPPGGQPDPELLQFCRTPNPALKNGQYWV
Sequence of CD44 proteoglycan (P16070 other isoform, or with tags, fused parts or gaps limits assumed): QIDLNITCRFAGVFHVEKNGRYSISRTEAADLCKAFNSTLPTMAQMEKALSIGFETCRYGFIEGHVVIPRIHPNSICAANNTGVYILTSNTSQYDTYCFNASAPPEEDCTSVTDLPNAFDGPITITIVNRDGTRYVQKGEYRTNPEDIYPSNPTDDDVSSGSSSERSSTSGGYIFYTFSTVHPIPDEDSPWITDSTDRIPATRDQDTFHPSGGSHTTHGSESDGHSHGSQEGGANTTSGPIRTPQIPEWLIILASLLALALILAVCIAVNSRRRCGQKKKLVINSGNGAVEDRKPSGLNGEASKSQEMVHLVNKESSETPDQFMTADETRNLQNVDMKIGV

With “DELPQLVTLPHPNLHGPEILDVPST [CS1, reference compound]”, the “Toxic activity on the cells (trypan blue exclusion)” value in series [1] (not shown) is “not be due to their toxic activity”.

Consider LQQKKEKDIMKKTI [SG1, LQQKKEKDIMKKTI], for which the “Toxic activity on the cells (trypan blue exclusion)” value in series [1] is recorded as “not be due to their toxic activity”.

B1: CS1/OVA: CS1 polypeptide chemically conjugated to ovalbumin using EDC (conjugate)
peptide: DELPQLVTLPHPNLHGPEILDVPST
chain: GSIGAASMEFCFDVFKELKVHHANENIFYCPIAIMSALAMVYLGAKDSTRTQINKVVRFDKLPGFGDSIEAQCGTSVNVHSSLRDILNQITKPNDVYSFSLASRLYAEERYPILPEYLQCVKELYRGGLEPINFQTAADQARELINSWVESQTNGIIRNVLQPSSVDSQTAMVLVNAIVFKGLWEKAFKDEDTQAMPFRVTEQESKPVQMMYQIGLFRVASMASEKMKILELPFASGTMSMLVLLPDEVSGLEQLESIINFEKLTEWTSSNVMEERKIKVYLPRMKMEEKYNLTSVLMAMGITDVFSSSANLSGISSAESLKISQAVHAAHAEINEAGREVVGSAEAGVDAASVSEEFRADHPFLFCIKHIATNAVLFFGRCVSP
Turning to B1, the “Coating concentration that promoted half maximal cell adhesion” value in series [2] was 5 µg/mL.

B2: SG1 polypeptide (peptide)
peptide: LQQKKEKDIMKKTI
modifications: Immobilized on CH-Sepharose (CH-affinity beads) in the affinity chromatography; the coupling to the support is not carried by the letters.
notes: Synthetic peptide; used as soluble peptide in the adhesion assays; also called L-SG1; polypeptide SG1
The molecule B2 gave a NaCl concentration at elution in series [3] of 0.13 to 0.15 M. For the same molecule, the binding result with CD44 proteoglycan is given as “no binding”.
